The target of this test is full length T216A Mos1 transposase (Drosophila mauritiana). The test can be described thus: crystal structure; Mos1 strand transfer complex (STC): T216A Mos1 transposase and strand transfer product DNA at 50 uM each in 25 mM PIPES-NaOH pH 7.5, 250 mM NaCl, 20 mM MgCl2, 1 mM DTT; sitting drop, 30% (v/v) MPD, 0.1 M sodium cacodylate pH 6.5, 0.2 M magnesium acetate; 3.3 Å; one STC in the asymmetric unit.

For 1 substance, stoichiometry N results are on record in PMC5481204.

As to “full length T216A Mos1 transposase (enzyme)”, the stoichiometry N – broadly, a count of units in the complex or per binding partner – was found to be 2.
